Data from patent US20240368295A1 (SUTRO BIOPHARMA, published 2024).
Residue numbers refer to the chain shown, from its start.

T1: BCMA on BCMA-positive NCI-H929, ARP-1 and U266B1 cells (human, UniProt Q02223 1-184)
T1 construct: they are human cell lines; also called B-cell maturation antigen; TNFRSF17
T1 sequence: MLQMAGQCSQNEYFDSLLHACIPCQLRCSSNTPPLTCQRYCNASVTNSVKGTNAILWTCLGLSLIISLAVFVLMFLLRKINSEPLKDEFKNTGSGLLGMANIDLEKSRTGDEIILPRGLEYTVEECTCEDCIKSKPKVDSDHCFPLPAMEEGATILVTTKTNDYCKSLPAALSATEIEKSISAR

B1: SRP2265-F02 (antibody, IgG1, V domains shown)
VH: EVQLVESGGGLVQPGGSLRLSCAASGFNISAPGIHWVRQAPGKGLEWVGFINPAGGYTDYADSVKGRFTISADTSKNTAYLQMNSLRAEDTAVYYCARDYIRQYWTYVLDYWGQGTLVTVSS
VL: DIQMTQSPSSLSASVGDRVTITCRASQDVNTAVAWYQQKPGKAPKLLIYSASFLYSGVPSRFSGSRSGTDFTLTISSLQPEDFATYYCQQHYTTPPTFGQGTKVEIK
notes: IgG1 with trastuzumab light chain, His/FLAG-tagged, cell-free expressed; also called Antibody 4
B2: SRP2265-F05 (antibody, IgG1, V domains shown)
VH: B1 VH with S30I, I101V, R102N, Q103A
VL: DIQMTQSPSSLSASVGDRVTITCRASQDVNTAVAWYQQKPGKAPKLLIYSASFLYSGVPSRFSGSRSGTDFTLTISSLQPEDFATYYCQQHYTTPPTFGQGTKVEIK
notes: IgG1 with trastuzumab light chain, His/FLAG-tagged, cell-free expressed; also called Antibody 3
B3: SRP2265-A06 (antibody, IgG1, V domains shown)
VH: B1 VH with S30Y, A31R, P32S, I101V, R102P
VL: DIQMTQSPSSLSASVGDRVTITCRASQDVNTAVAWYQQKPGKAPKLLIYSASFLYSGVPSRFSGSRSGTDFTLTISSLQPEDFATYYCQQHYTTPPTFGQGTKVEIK
notes: IgG1 with trastuzumab light chain, His/FLAG-tagged, cell-free expressed; also called Antibody 13
B4: SRP2265-F06 (antibody, IgG1, V domains shown)
VH: B1 VH with A31Y, R102L
VL: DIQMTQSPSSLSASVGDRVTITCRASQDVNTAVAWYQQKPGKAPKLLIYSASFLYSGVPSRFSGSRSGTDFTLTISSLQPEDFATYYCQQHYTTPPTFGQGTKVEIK
notes: IgG1 with trastuzumab light chain, His/FLAG-tagged, cell-free expressed; also called Antibody 2
B5: SRP2265-A09 (antibody, IgG1, V domains shown)
VH: B1 VH with S30I, A31G, I101V, R102Y, Q103N
VL: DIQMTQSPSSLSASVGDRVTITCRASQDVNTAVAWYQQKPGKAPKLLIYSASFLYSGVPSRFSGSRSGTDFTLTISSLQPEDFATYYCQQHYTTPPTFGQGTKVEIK
notes: IgG1 with trastuzumab light chain, His/FLAG-tagged, cell-free expressed; also called Antibody 6
B6: SRP2265-D05 (antibody, IgG1, V domains shown)
VH: B1 VH with A31G, G55A, T69A, Y100F, I101V, R102Y, Q103A
VL: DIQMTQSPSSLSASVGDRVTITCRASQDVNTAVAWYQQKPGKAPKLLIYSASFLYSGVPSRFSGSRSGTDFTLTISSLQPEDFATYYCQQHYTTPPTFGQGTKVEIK
notes: IgG1 with trastuzumab light chain, His/FLAG-tagged, cell-free expressed; also called Antibody 10
B7: SRP2265-E02 (antibody, IgG1, V domains shown)
VH: B1 VH with S30Y, A31V, P32S, M83T, I101V, R102Y
VL: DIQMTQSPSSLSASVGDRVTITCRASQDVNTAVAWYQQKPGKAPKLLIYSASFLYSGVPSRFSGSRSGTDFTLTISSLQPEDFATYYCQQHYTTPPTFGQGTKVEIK
notes: IgG1 with trastuzumab light chain, His/FLAG-tagged, cell-free expressed; also called Antibody 8
B8: SRP2265-F03 (antibody, IgG1, V domains shown)
VH: B1 VH with S30R, A31G, N52S, G55A, Y100F, I101V, R102Q, Q103S
VL: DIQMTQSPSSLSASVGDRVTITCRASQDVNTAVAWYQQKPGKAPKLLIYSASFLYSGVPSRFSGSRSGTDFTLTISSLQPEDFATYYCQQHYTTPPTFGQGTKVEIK
notes: IgG1 with trastuzumab light chain, His/FLAG-tagged, cell-free expressed; also called Antibody 7
B9: SRP2213-A06 (antibody, IgG1, V domains shown)
VH: EVQLVESGGGLVQPGGSLRLSCAASGFNISSYAIHWVRQAPGKGLEWVGVISPYGGYTEYADSVKGRFTISADTSKNTAYLQMNSLRAEDTAVYYCARDFYDRYSTYVLDYWGQGTLVTVSS
VL: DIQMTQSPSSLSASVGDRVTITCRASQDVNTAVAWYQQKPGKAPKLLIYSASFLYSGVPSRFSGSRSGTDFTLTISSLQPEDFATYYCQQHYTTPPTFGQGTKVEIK
notes: IgG1 with trastuzumab light chain, His/FLAG-tagged, cell-free expressed; also called Antibody 23
B10: SRP2291-A04 (antibody, IgG1, V domains shown)
VH: B9 VH with A33G, V50F, G55D, D73G, Y101N, S105F
VL: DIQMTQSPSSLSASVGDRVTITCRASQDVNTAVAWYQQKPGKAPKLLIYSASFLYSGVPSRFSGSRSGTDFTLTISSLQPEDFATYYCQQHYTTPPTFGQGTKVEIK
notes: IgG1 with trastuzumab light chain, His/FLAG-tagged, cell-free expressed; also called Antibody 28

target: T1, BCMA on BCMA-positive NCI-H929, ARP-1 …; assay: FACS, NCI-H929 cells
Protocol: (§1) Variants for which sufficient protein was purified in secondary screening were tested in a fluorescence-activated cell sorting (FACS) cell-binding assay. […] 6-12 point dilutions of anti-BCMA variants starting from concentrations of about 100-200 nM antibody were dispensed into each well using a BioMekFX (Beckman Coulter). Cells were then incubated on ice for 1 hr, washed with FACS buffer and incubated for 1 hr on ice with […] FACS buffer containing […] Alexa647-conjugated Goat Anti-Human IgG dispensed using BioMekFX (Beckman Coulter). Cells were then washed 2× with FACS buffer and fixed for 10 minutes in […] PBS with 2% PFA prior to fluorescence detection. Samples were acquired using a Beckton Dickinson LSRII FACS. Geometric Mean Fluorescence Intensity of BCMA antibody binding was analyzed using FlowJo® software (Trec Star, Inc.).

Binder | Bmax (MFI) | Kd
B1 | 12200 MFI | 4.5 nM
B2 | 12700 MFI | 10.3 nM
B3 | 11100 MFI | 
B4 | 11400 MFI | 
B5 | 11700 MFI | 5.2 nM
B6 | 10900 MFI | 4 nM
B7 | 11600 MFI | 
B8 | 12500 MFI | 5.3 nM
B9 | 2510 MFI | 
B10 | 33900 MFI | 

target: T1, BCMA on BCMA-positive NCI-H929, ARP-1 …; assay: cell-based or functional assay

Binder | ARP-1, SC225-conjugated 2° antibody cell killing, EC50 | ARP-1, SC225-conjugated 2° antibody cell killing, Span | U266B1, SC225-conjugated 2° antibody cell killing, EC50 | U266B1, SC225-conjugated 2° antibody cell killing, Span
B1 | 1.6 nM | 62% | 1 nM | 62%
B2 | 1.8 nM | 52% | 1.2 nM | 61%
B3 | 2.9 nM | 68% | 1.3 nM | 59%
B4 | 1.2 nM | 62% | 0.9 nM | 59%
B5 | 1.9 nM | 55% | 0.9 nM | 58%
B6 | 1 nM | 50% | 0.8 nM | 53%
B7 | 1.5 nM | 55% | 0.8 nM | 53%
B8 | 2.3 nM | 57% | 0.8 nM | 56%

target: T1, BCMA on BCMA-positive NCI-H929, ARP-1 …; assay: cell-based or functional assay; remark: another data set of the same source

Binder | U266B1, SC225-conjugated 2° antibody cell killing, EC50 | U266B1, SC225-conjugated 2° antibody cell killing, Span
B10 | 49 nM | 0.8%

target: cynomolgus BCMA on 293T-cynoBCMA cells (cynomolgus, UniProt Q02223 1-184 (human entry)); assay: FACS, 293T-cynoBCMA cells
Sequence (Q02223 other isoform, or with tags, fused parts or gaps): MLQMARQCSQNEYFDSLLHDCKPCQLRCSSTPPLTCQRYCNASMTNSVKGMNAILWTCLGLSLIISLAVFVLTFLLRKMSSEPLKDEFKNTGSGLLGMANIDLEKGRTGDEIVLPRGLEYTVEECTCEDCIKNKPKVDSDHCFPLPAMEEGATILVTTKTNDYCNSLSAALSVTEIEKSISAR
Protocol: as §1

Binder | Bmax (MFI) | Kd
B1 | 21800 MFI | 5 nM
B2 | 18500 MFI | 3 nM
B3 | 22100 MFI | 
B4 | 25800 MFI | 
B5 | 23800 MFI | 6.2 nM
B6 | 21300 MFI | 3.8 nM
B7 | 26700 MFI | 5.1 nM
B9 | 3620 MFI | 
B10 | 63800 MFI | 
